From patent US8748182B2, “Mutant proteins and methods for producing them” (Heptares Therapeutics Limited, priority 2007, dated 2014)
Substitutions are numbered along the chain they refer to. Names may count otherwise.

B1: H103A: NTR point mutant (protein, UniProt P20789 1-424, looked up, variant H103A)
Neurotensin receptor type 1: MHLNSSVPQGTPGEPDAQPFSGPQSEMEATFLALSLSNGSGNTSESDTAGPNSDLDVNTDIYSKVLVTAIYLALFVVGTVGNSVTAFTLARKKSLQSLQSTVAYHLGSLALSDLLILLLAMPVELYNFIWVHHPWAFGDAGCRGYYFLRDACTYATALNVASLSVERYLAICHPFKAKTLMSRSRTKKFISAIWLASALLAIPMLFTMGLQNRSGDGTHPGGLVCTPIVDTATVKVVIQVNTFMSFLFPMLVISILNTVIANKLTVMVHQAAEQGRVCTVGTHNGLEHSTFNMTIEPGRVQALRHGVLVLRAVVIAFVVCWLPYHVRRLMFCYISDEQWTTFLFDFYHYFYMLTNALFYVSSAINPILYNLVSANFRQVFLSTLACLCPGWRHRRKKRPTFSRKPNSMSSNHAFSTSATRETLY
B2: F358A: NTR point mutant (protein, UniProt P20789 1-424, looked up, variant F358A)
Neurotensin receptor type 1: B1 Neurotensin receptor type 1 with A103H, F358A
B3: A90L: NTR point mutant (protein, UniProt P20789 1-424, looked up, variant A90L)
Neurotensin receptor type 1: B1 Neurotensin receptor type 1 with A90L, A103H
B4: S362A: NTR point mutant (protein, UniProt P20789 1-424, looked up, variant S362A)
Neurotensin receptor type 1: B1 Neurotensin receptor type 1 with A103H, S362A
B5: 1116A: NTR point mutant (Ile 116) (protein, UniProt P20789 1-424, looked up, variant I116A)
Neurotensin receptor type 1: B1 Neurotensin receptor type 1 with A103H, I116A
B6: Y351A: NTR point mutant (protein, UniProt P20789 1-424, looked up, variant Y351A)
Neurotensin receptor type 1: B1 Neurotensin receptor type 1 with A103H, Y351A
B7: L111A: NTR point mutant (protein, UniProt P20789 1-424, looked up, variant L111A)
Neurotensin receptor type 1: B1 Neurotensin receptor type 1 with A103H, L111A
B8: A155L: NTR point mutant (protein, UniProt P20789 1-424, looked up, variant A155L)
Neurotensin receptor type 1: B1 Neurotensin receptor type 1 with A103H, A155L
B9: D345A: NTR point mutant (protein, UniProt P20789 1-424, looked up, variant D345A)
Neurotensin receptor type 1: B1 Neurotensin receptor type 1 with A103H, D345A
B10: W391A: NTR point mutant (protein, UniProt P20789 1-424, looked up, variant W391A)
Neurotensin receptor type 1: B1 Neurotensin receptor type 1 with A103H, W391A
B11: M181A: NTR point mutant (protein, UniProt P20789 1-424, looked up, variant M181A)
Neurotensin receptor type 1: B1 Neurotensin receptor type 1 with A103H, M181A
B12: P399A: NTR point mutant (protein, UniProt P20789 1-424, looked up, variant P399A)
Neurotensin receptor type 1: B1 Neurotensin receptor type 1 with A103H, P399A
B13: R392A: NTR point mutant (protein, UniProt P20789 1-424, looked up, variant R392A)
Neurotensin receptor type 1: B1 Neurotensin receptor type 1 with A103H, R392A
B14: S100A: NTR point mutant (protein, UniProt P20789 1-424, looked up, variant S100A)
Neurotensin receptor type 1: B1 Neurotensin receptor type 1 with S100A, A103H
B15: L205A: NTR point mutant (protein, UniProt P20789 1-424, looked up, variant L205A)
Neurotensin receptor type 1: B1 Neurotensin receptor type 1 with A103H, L205A
B16: V268A: NTR point mutant (protein, UniProt P20789 1-424, looked up, variant V268A)
Neurotensin receptor type 1: B1 Neurotensin receptor type 1 with A103H, V268A
B17: D139A: NTR point mutant (protein, UniProt P20789 1-424, looked up, variant D139A)
Neurotensin receptor type 1: B1 Neurotensin receptor type 1 with A103H, D139A
B18: F189A: NTR point mutant (protein, UniProt P20789 1-424, looked up, variant F189A)
Neurotensin receptor type 1: B1 Neurotensin receptor type 1 with A103H, F189A
B19: T207A: NTR point mutant (protein, UniProt P20789 1-424, looked up, variant T207A)
Neurotensin receptor type 1: B1 Neurotensin receptor type 1 with A103H, T207A
B20: A120L: NTR point mutant (protein, UniProt P20789 1-424, looked up, variant A120L)
Neurotensin receptor type 1: B1 Neurotensin receptor type 1 with A103H, A120L
B21: S182A: NTR point mutant (protein, UniProt P20789 1-424, looked up, variant S182A)
Neurotensin receptor type 1: B1 Neurotensin receptor type 1 with A103H, S182A
B22: S108A: NTR point mutant (protein, UniProt P20789 1-424, looked up, variant S108A)
Neurotensin receptor type 1: B1 Neurotensin receptor type 1 with A103H, S108A
B23: L256A: NTR point mutant (protein, UniProt P20789 1-424, looked up, variant L256A)
Neurotensin receptor type 1: B1 Neurotensin receptor type 1 with A103H, L256A
B24: L72A: NTR point mutant (protein, UniProt P20789 1-424, looked up, variant L72A)
Neurotensin receptor type 1: B1 Neurotensin receptor type 1 with L72A, A103H
B25: F147A: NTR point mutant (protein, UniProt P20789 1-424, looked up, variant F147A)
Neurotensin receptor type 1: B1 Neurotensin receptor type 1 with A103H, F147A
B26: N262A: NTR point mutant (protein, UniProt P20789 1-424, looked up, variant N262A)
Neurotensin receptor type 1: B1 Neurotensin receptor type 1 with A103H, N262A
B27: T179A: NTR point mutant (protein, UniProt P20789 1-424, looked up, variant T179A)
Neurotensin receptor type 1: B1 Neurotensin receptor type 1 with A103H, T179A
B28: L109A: NTR point mutant (protein, UniProt P20789 1-424, looked up, variant L109A)
Neurotensin receptor type 1: B1 Neurotensin receptor type 1 with A103H, L109A
B29: K176A: NTR point mutant (protein, UniProt P20789 1-424, looked up, variant K176A)
Neurotensin receptor type 1: B1 Neurotensin receptor type 1 with A103H, K176A
B30: D113A: NTR point mutant (protein, UniProt P20789 1-424, looked up, variant D113A)
Neurotensin receptor type 1: B1 Neurotensin receptor type 1 with A103H, D113A
B31: G209A: NTR point mutant (protein, UniProt P20789 1-424, looked up, variant G209A)
Neurotensin receptor type 1: B1 Neurotensin receptor type 1 with A103H, G209A
B32: A356L: NTR point mutant (protein, UniProt P20789 1-424, looked up, variant A356L)
Neurotensin receptor type 1: B1 Neurotensin receptor type 1 with A103H, A356L
B33: M293A: NTR point mutant (protein, UniProt P20789 1-424, looked up, variant M293A)
Neurotensin receptor type 1: B1 Neurotensin receptor type 1 with A103H, M293A

Experiment: Thermostability of neurotensin receptor (NTR) mutants (3H-neurotensin binding)
Assay type: physicochemical
Details: Ligand(+) format
Description: FIG. 12 Flow chart showing the two different assay formats of ligand (+) and ligand (−) used to determine receptor thermostablity.
3. Mutants tested for thermostability by heating in the absence of the agonist were re-tested using a slightly different assay where the mutants were heated in the presence of ^3H-neurotensin (Ligand(+) format in FIG. 12). […] All of these also have increased thermostability. • 5. Preferred combinations are • a. Nag7m F358A+A86L+1260A+F342A Tm 51° C. (neurotensin bound) • b. Nag7n F358A+H103A+1260A+F342A Tm 51° C. (neurotensin bound) • Wildtype NTR has a Tm of 35° C. with neurotensin bound.

| Molecule | thermostability, heated in the presence of 3H-neurotensin |
| --- | --- |
| B1 | improved thermostability |
| B2 | improved thermostability |
| B3 | improved thermostability |
| B4 | improved thermostability |

Same assay, conditions: heated in the absence of the agonist

| Molecule | thermostability, 3H-neurotensin (agonist) binding after the heating step |
| --- | --- |
| B5 | small but significant increase in thermostability |
| B6 | small but significant increase in thermostability |
| B7 | small but significant increase in thermostability |
| B8 | small but significant increase in thermostability |
| B9 | small but significant increase in thermostability |
| B10 | small but significant increase in thermostability |
| B11 | small but significant increase in thermostability |
| B12 | small but significant increase in thermostability |
| B1 | small but significant increase in thermostability |
| B13 | small but significant increase in thermostability |
| B14 | small but significant increase in thermostability |
| B15 | small but significant increase in thermostability |
| B16 | small but significant increase in thermostability |
| B17 | small but significant increase in thermostability |
| B18 | small but significant increase in thermostability |
| B19 | small but significant increase in thermostability |
| B20 | small but significant increase in thermostability |

| Molecule | thermostability, 3H-neurotensin (agonist) binding after the heating step |
| --- | --- |
| B21 | small but significant increase in thermostability |
| B22 | small but significant increase in thermostability |
| B23 | small but significant increase in thermostability |
| B24 | small but significant increase in thermostability |
| B25 | small but significant increase in thermostability |
| B26 | small but significant increase in thermostability |
| B27 | small but significant increase in thermostability |
| B2 | small but significant increase in thermostability |
| B28 | small but significant increase in thermostability |
| B3 | small but significant increase in thermostability |
| B29 | small but significant increase in thermostability |
| B4 | small but significant increase in thermostability |
| B30 | small but significant increase in thermostability |
| B31 | small but significant increase in thermostability |
| B32 | small but significant increase in thermostability |
| B33 | small but significant increase in thermostability |
